T1: human BCMA (human, UniProt Q02223 1-54)
T1 construct: also called huBCMA; hBCMA
T1 sequence: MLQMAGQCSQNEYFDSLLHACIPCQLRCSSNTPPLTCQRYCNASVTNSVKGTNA


How the values were obtained:
human CD3 (huCD3ed) [1] = target: T2, human CD3 (huCD3ed) (human, UniProt P07766 23-126; P04234 22-105); assay: SPR (ProteOn XPR36), IgG amine-coupled on chip, huCD3ed as analyte, 37 C
T2 construct: Soluble analyte in SPR; The delta chain is inferred from the label 'ed'; also called hCD3ed; hCD3
Procedure: (§1) All experiments were performed on a Bio-Rad Proteon XPR36 surface Plasmon resonance biosensor (Bio-Rad, Hercules, CA). […] The analysis temperature for the immobilization was 25° C. and the running buffer was HBS-T+(10 mM HEPES, 150 mM NaCl, 0.05% Tween-20, pH 7.4). Channels were activated in the analyte (horizontal) direction by injecting a mixture of 1 mM ECD and 0.25 mM NHS for 3 minutes at a flow rate of 30 μL/min. IgGs were immobilized on the activated spots by injecting them in the ligand (vertical) direction at […] in 10 mM Acetate pH 4.5 buffer for 1.5 minutes at […]. The activated surfaces were blocked by injecting 1M ethanolamine, pH 8.5 in the analyte direction for 3 minutes at 30 μL/min.
(§2) The analysis temperature for the hCD3 binding analysis was 37° C. or 25° C. in a running buffer of HBS-T+, supplemented with 1 mg/mL BSA. A kinetic titration method was employed for the interaction analysis as described in Abdiche, et al. The hCD3 (human CD3) analyte was injected in the analyte direction using a series of injections from low to high concentration. The concentrations used were 0.08 nM, 0.4 nM, 2 nM, 10 nM and 50 nM (a 5-membered series, with a 5-fold dilution factor and top concentration of 50 nM). The association time for a given analyte dilution was two minutes. Immediately after the 50 nM hCD3 injection, dissociation was monitored for 2 hours.
(§3) The sensorgrams were double-referenced and fit to a 1:1 Langmuir with mass transport kinetic titration model in BIAevaluation Software version 4.1.1 (GE Lifesciences, Piscataway, NJ).

human CD3 (huCD3ed) [2] = target: T2, human CD3 (huCD3ed); assay: SPR (ProteOn XPR36), IgG on chip, huCD3ed analyte, 37 C; column head says nM but kd/ka gives this number in M
Procedure: as §1, §2, §3

cyBCMA [3] = target: T3, cyBCMA (cynomolgus, UniProt A0A2K5UD97 1-53); assay: SPR, immobilised IgG, 37° C
T3 construct: Soluble analyte in SPR; construct not described; also called cyno BCMA
T3 sequence (A0A2K5UD97 entry or part of it): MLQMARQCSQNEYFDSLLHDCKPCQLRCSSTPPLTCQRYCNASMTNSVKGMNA

human BCMA [4] = target: T1, human BCMA; assay: SPR, immobilised IgG, 37° C
cyBCMA [5] = target: T3, cyBCMA; assay: SPR, immobilised IgG, 25° C
human BCMA [6] = target: T1, human BCMA; assay: SPR, immobilised IgG, 25° C

T2 sequence (P07766 23-126, chain 1 of 2): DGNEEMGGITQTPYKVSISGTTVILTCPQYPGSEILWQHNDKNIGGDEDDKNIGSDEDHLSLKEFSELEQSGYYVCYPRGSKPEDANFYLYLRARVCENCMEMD
T2 sequence (P04234 22-105, chain 2 of 2): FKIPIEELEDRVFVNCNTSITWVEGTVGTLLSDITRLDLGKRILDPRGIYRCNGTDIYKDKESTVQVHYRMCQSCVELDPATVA

Row | Binder | T½ (human CD3 (huCD3ed) [1]) | koff (human CD3 (huCD3ed) [1]) | kon (human CD3 (huCD3ed) [1]) | Kd (human CD3 (huCD3ed) [2]) | T½ (cyBCMA [3]) | T½ (human BCMA [4]) | T½ (cyBCMA [5]) | T½ (human BCMA [6])
1 | h2B4-VH-wt VL_TK (antibody, V domains shown, Anti-CD3; also called h2B4-TK) VH: EVQLVESGGGLVQPGGSLRLSCAASGFTFSDYYMTWVRQAPGKGLEWVAFIRNRARGYTSDHNASVKGRFTISRDNAKNSLYLQMNSLRAEDTAVYYCARDRPSYYVLDYWGQGTTVTVSS VL: DIVMTQSPDSLAVSLGERATINCKSSQSLFNVRSRKNYLAWYQQKPGQPPKLLISWASTRESGVPDRFSGSGSGTDFTLTISSLQAEDVAVYYCKQSYDLFTFGSGTKLEIK | 0.83 min | 0.014 s⁻¹ | 380000 M⁻¹ s⁻¹ | 38 nM |  |  |  | 
2 | h2B4-VH-yaes VL_TK (antibody, V domains shown, Anti-CD3; also called h2B4-yaesTK) VH: EVQLVESGGGLVQPGGSLRLSCAASGFTFSDYYMTWVRQAPGKGLEWVAFIRNRARGYTSDYAESVKGRFTISRDNAKNSLYLQMNSLRAEDTAVYYCARDRPSYYVLDYWGQGTTVTVSS VL: DIVMTQSPDSLAVSLGERATINCKSSQSLFNVRSRKNYLAWYQQKPGQPPKLLISWASTRESGVPDRFSGSGSGTDFTLTISSLQAEDVAVYYCKQSYDLFTFGSGTKLEIK | 0.5 min | 0.023 s⁻¹ | 230000 M⁻¹ s⁻¹ | 100 nM |  |  |  | 
3 | h2B4-VH-yads VL_TK (antibody, V domains shown, Anti-CD3) VH: EVQLVESGGGLVQPGGSLRLSCAASGFTFSDYYMTWVRQAPGKGLEWVAFIRNRARGYTSDYADSVKGRFTISRDNAKNSLYLQMNSLRAEDTAVYYCARDRPSYYVLDYWGQGTTVTVSS VL: DIVMTQSPDSLAVSLGERATINCKSSQSLFNVRSRKNYLAWYQQKPGQPPKLLISWASTRESGVPDRFSGSGSGTDFTLTISSLQAEDVAVYYCKQSYDLFTFGSGTKLEIK | 0.79 min | 0.021 s⁻¹ | 240000 M⁻¹ s⁻¹ | 86 nM |  |  |  | 
4 | h2B4-VH-hnps VL_TK (antibody, V domains shown, Anti-CD3; also called h2B4-hnpsTK) VH: EVQLVESGGGLVQPGGSLRLSCAASGFTFSDYYMTWVRQAPGKGLEWVAFIRNRARGYTSDHNPSVKGRFTISRDNAKNSLYLQMNSLRAEDTAVYYCARDRPSYYVLDYWGQGTTVTVSS VL: DIVMTQSPDSLAVSLGERATINCKSSQSLFNVRSRKNYLAWYQQKPGQPPKLLISWASTRESGVPDRFSGSGSGTDFTLTISSLQAEDVAVYYCKQSYDLFTFGSGTKLEIK | 0.72 min | 0.016 s⁻¹ | 390000 M⁻¹ s⁻¹ | 41 nM |  |  |  | 
5 | L3.PY/P6E01 (antibody, V domains shown, IgG in the assay) VH: EVQLLESGGGLVQPGGSLRLSCAASGFTFGSYAMTWVRQAPGKGLEWVSAISGSGGNTFYADSVKGRFTISRDNSKNTLYLQMNSLRAEDTAVYYCARVSPIASGMDYWGQGTLVTVSS VL: EIVLTQSPGTLSLSPGERATLSCRASQSVSSSYLAWYQQKPGQAPRLLIYGASSRATGIPDRFSGSGSGTDFTLTISRLEPEDFAVYYCQHYPYPPSFTFGQGTKVEIK |  |  |  |  | 0.88 min | 5.91 min | 3.9 min | 50.7 min
6 | L3.NY/P6E01 (antibody, V domains shown, IgG in the assay) VH: EVQLLESGGGLVQPGGSLRLSCAASGFTFGSYAMTWVRQAPGKGLEWVSAISGSGGNTFYADSVKGRFTISRDNSKNTLYLQMNSLRAEDTAVYYCARVSPIASGMDYWGQGTLVTVSS VL: EIVLTQSPGTLSLSPGERATLSCRASQSVSSSYLAWYQQKPGQAPRLLIYGASSRATGIPDRFSGSGSGTDFTLTISRLEPEDFAVYYCQHYNYPPSFTFGQGTKVEIK |  |  |  |  |  |  | 4 min | 30.1 min
7 | L3.KW/P6E01 (antibody, V domains shown, IgG in the assay) VH: EVQLLESGGGLVQPGGSLRLSCAASGFTFGSYAMTWVRQAPGKGLEWVSAISGSGGNTFYADSVKGRFTISRDNSKNTLYLQMNSLRAEDTAVYYCARVSPIASGMDYWGQGTLVTVSS VL: EIVLTQSPGTLSLSPGERATLSCRASQSVSSSYLAWYQQKPGQAPRLLIYGASSRATGIPDRFSGSGSGTDFTLTISRLEPEDFAVYYCKHYGWPPSFTFGQGTKVEIK |  |  |  |  |  |  | 4.5 min | 36.7 min
